Entries after “also recorded” stand apart in the source; their conditions may differ.
Test system: NaPi2b-negative EBC-1 cells
Assay: Bystander activity, EBC-1 mono-culture vs co-culture with HCC-78 (Examples 19 and 34)
Assay type: cell-based
Details: for bystander activity (in words): 5 nM test article; for bystander activity (in words) / Average EBC-1 % viability in co-culture / Average EBC-1 % viability in mono-culture: 4 days
Protocol: The ability of v29456 ADCs to exert a bystander killing effect on cancer cells was assessed according to the method described below. Bystander killing can occur after target-specific uptake of an ADC into an antigen-positive cell. In this case, catabolism of the ADC results in release of payload or an active catabolite, which then crosses the cell membrane of nearby cells to elicit their death.
Cell lines used were HCC-78 (high NaPi2b expression) and EBC-1 (negative NaPi2b expression).
(§1) NaPi2b-positive HCC-78 and NaPi2b-negative EBC-1 cells were seeded either as mono-cultures or co-cultures in a 48-well plate at 15,000 cells and 5,000 cells, respectively, in 100 μL assay media (RPMI1640+10% FBS). ADCs were diluted to 10 nM in assay media and 100 μL was added to the cell-containing plates (5 nM final ADC concentration). Cells were incubated with ADCs for 4 days under standard culturing conditions (37° C./5% CO2). […] After incubation, cells were washed in FACS buffer, resuspended in 70 μL FACS buffer per well, and 35 μL per well were analyzed on a BD LSRFortessa™ Cell Analyzer (BD Biosciences, Franklin Lake, NJ). Dead cells were excluded by gating on YO—PRO®-1 staining. The number of HCC-78 and EBC-1 cells were determined by the number of events in the Alexa Fluor®647 positive (NaPi2b-positive) and Alexa Fluor®647 negative (NaPi2b-negative) gates, respectively. Percent viability was calculated as the number of cells in treatment condition divided by the number of cells in the no-treatment condition.
(§2) Bystander effect was calculated by comparing the viability of NaPi2b-negative EBC-1 cells treated as mono-culture (black bars) with that of the cells treated as a co-culture with NaPi2b-positive HCC-78 cells (grey bars). A greater decrease in viability in co-culture compared with mono-culture indicated a greater bystander effect.
Bystander killing can occur after target-specific uptake of an ADC into an antigen-positive cell, as described in Example 19. Cell lines used were HCC-78 (high NaPi2b expression) and EBC-1 (negative NaPi2b expression). Surface NaPi2b expression for these cell lines were measured as described in Example 15.
[…] […] The human antibody variant v29456 conjugated to MC-GGFG-AM-DXd1 was included as a positive control.
as §1, with “Briefly, NaPi2b-positive HCC-78” for “NaPi2b-positive HCC-78”, “10 nM or 40 nM in assay” for “10 nM in assay”, “plates (5 nM or 20 nM final” for “plates (5 nM final”, “resuspended in 60 μL FACS” for “resuspended in 70 μL FACS”, “cells in each treatment condition” for “cells in treatment condition”
as §2, with “indicates” for “indicated”

Substance | bystander activity (in words) | Average EBC-1 % viability in co-culture (5 nM ADC, co-culture with NaPi2b-positive HCC-78, relative to untreated blank) | Average EBC-1 % viability in mono-culture (5 nM ADC, relative to untreated blank) | % Bystander activity (5 nM ADC, viability in mono-culture compared with co-culture) | % Bystander activity (5 nM, Biological Replicate 1) | Average EBC-1 % viability in co-culture (5 nM, Biological Replicate 1, co-culture with HCC-78, relative to untreated blank) | Average EBC-1 % viability in mono-culture (5 nM, Biological Replicate 1, relative to untreated blank) | % Bystander activity (20 nM, Biological Replicate 1) | Average EBC-1 % viability in co-culture (20 nM, Biological Replicate 1, co-culture with HCC-78, relative to untreated blank) | Average EBC-1 % viability in mono-culture (20 nM, Biological Replicate 1, relative to untreated blank)
palivizumab MCvcPABC-MMAE: "palivizumab (v22277) MCvcPABC-MMAE", negative control | negative bystander activity; also recorded: negligible bystander activity |  |  |  |  |  |  |  |  | 
palivizumab MC-GGFG-AM-DXd1: "palivizumab (v22277) MC-GGFG-AM-DXd1", negative control | negative bystander activity; also recorded: negligible bystander activity |  |  |  |  |  |  |  |  | 
v22277-MCvcPABC-MMAE: negative (non-NaPi2b targeting) controls palivizumab (v22277) MC-GGFG-AM-DXd and palivizumab (v22277) MCvcPABC-MMAE |  | 95.8% | 86.4% | −9.4% | 7.5% | 81.7% | 89.2% | 7.4% | 84.1% | 91.5%
